According to publication doi:10.1101/2020.05.11.088153:
Values joined by “and” are separate entries in the source; they are usually repeats but may differ in a detail not shown here. Identical values can stand only once.

Experiments:
[1] = target: βPFO_(Aβ(1-42)) tetramer (membrane-associated β-sheet pore forming tetramer of Aβ(1-42)) (UniProt P05067); assay: SEC
[2] = target: βPFO_(Aβ(1-42)) tetramer (membrane-associated β-sheet pore forming tetramer of Aβ(1-42)) (UniProt P05067); assay: native MS
[3] = target: βPFO_(Aβ(1-42)) tetramer (membrane-associated β-sheet pore forming tetramer of Aβ(1-42)) (UniProt P05067); assay: ITC

Substance: somatostatin-14 (from UniProt P61278 103-116) (peptide)
- increase of the area under the tetramer peak [1]: 20%
- stoichiometry N [2]: 1 and 2
- Kd [3]: 23 µM
- stoichiometry N [3]: 2
